From paper PMC4417118 (Genome Research, 2015) come the findings set out here.

As a reminder, the stoichiometry N is a count of units in the complex or per binding partner.

This data set deals with the molecule itself. The data set is described as follows: native gel or EMSA. For orientation: A gel shift assay detects complexes by their altered migration in electrophoresis.

B1: His-CRMP1 (collapsin response mediator protein 1, wild type) (natural protein)
chain: not shown
Regarding B1, the “stoichiometry N” value is 4.

B2: His-CRMP1-D408V (natural protein)
chain: not shown
As to B2, the “stoichiometry N” value was 4.
